Laboratory results: the supplement of paper PMC10065799, “High-throughput profiling of sequence recognition by tyrosine kinases and SH2 domains using bacterial peptide display” (eLife, 2023)

Molecular target: Fes (UniProt P07332)
Assay: phosphorylation enrichment, bacterial display (enrichment ratio); higher = better substrate or ligand; peptides without Tyr show the background
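Note: 11-residue human phosphosite peptides and single-mutation variants displayed on the E. coli surface, counted by deep sequencing, each peptide's frequency after selection divided by its frequency in the unselected input library; frequency after pTyr selection over input frequency; kinase dosed for 20-30% of maximal phosphorylation in three min.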

Fes, sequence (P07332 whole entry, looked up): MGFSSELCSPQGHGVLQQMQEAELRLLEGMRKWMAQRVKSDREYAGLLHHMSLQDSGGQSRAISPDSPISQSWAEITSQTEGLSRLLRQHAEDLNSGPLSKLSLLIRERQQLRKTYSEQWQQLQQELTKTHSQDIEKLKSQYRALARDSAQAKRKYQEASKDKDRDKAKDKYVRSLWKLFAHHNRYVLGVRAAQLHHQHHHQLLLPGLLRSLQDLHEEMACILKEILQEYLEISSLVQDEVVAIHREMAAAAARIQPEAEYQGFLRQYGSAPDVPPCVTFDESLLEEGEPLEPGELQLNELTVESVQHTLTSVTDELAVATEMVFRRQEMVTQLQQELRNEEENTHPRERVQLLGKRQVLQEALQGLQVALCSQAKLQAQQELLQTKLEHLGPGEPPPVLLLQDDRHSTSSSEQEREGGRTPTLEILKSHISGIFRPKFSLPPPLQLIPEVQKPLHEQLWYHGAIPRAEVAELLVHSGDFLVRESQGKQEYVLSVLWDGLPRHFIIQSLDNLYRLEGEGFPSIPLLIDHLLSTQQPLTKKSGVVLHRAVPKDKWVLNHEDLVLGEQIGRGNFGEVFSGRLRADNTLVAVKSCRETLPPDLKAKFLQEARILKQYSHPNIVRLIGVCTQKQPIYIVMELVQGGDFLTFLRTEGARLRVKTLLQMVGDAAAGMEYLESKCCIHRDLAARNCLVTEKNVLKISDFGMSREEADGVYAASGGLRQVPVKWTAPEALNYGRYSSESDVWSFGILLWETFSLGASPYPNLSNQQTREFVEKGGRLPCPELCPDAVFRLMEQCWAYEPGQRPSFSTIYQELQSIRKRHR

Row | Sequence | phosphorylation enrichment
1 | ALKKPYGVLFK [RPF2_Y59_YF] | 0.722
2 | FMFKVYSDPQP [FGFR1_Y280_C277Y_YF] | 1.68
3 | ETKAFYPEEIS [HSPA1A_Y115] | 0.919
4 | SLNEGYAKDFD [FBP1_Y216_R218K] | 0.937
5 | AACQHYGVHTC [NR4A2_Y275_R278H] | 0.63
6 | SVMAEYGLFAA [VSX2_Y219_G223A_YF] | 0.845
7 | CLAKMYYSAVE [CP_Y539_D544E] | 1.19
8 | LLREWYVQDPF [SIX3_Y225_L226V_YF] | 0.977
9 | TRLAQYDSNSK [BMX_Y216_S212R] | 0.684
10 | AAVPAYDKIRV [STXBP2_Y401] | 0.714
11 | SVTCTYSRALN [TP53_Y126_P128R] | 1.28
12 | VASSLYDILAR [GLB1_Y294] | 1.05
13 | VRTGIYHGGKP [PIK3CA_Y361_E365K] | 0.499
14 | DEEEEYEFMNR [ERBB3_Y1197_D1194E_YF] | 1.07
15 | VIEFSYTSADG [DHCR7_Y382_C380Y_YF] | 1.16
16 | RSACTYLAPHL [PLK3_Y615_S618P] | 1.02
17 | EEGNPSYSSAR [MCCC2_Y520_Y520S] | 1

Row | Sequence | phosphorylation enrichment
18 | HAVVDYMRRQK [ATM_Y1915_L1910H] | 1.14
19 | YVSSFYHAFSG [ACTN4_Y265] | 0.884
20 | KPFRVYCDMNT [FGB_Y269_YF] | 1.3
21 | RGRSTCFWPRP [GAGE12J_Y9_Y9C_YF] | 0.772
22 | IAINKYGVSLI [MYO7A_Y2136] | 1.12
23 | DLAAQYTTVGR [SGSH_Y240] | 0.664
24 | SVVVPYEPPEI [TP53_Y220_V225I] | 1.25
25 | MTFQNYRQALF [FAM20C_Y279_G280R] | 1.02
26 | RRERPYGGGGG [FUS_Y526] | 0.467
27 | CDFKKYGKGLR [ZNF445_Y433_Y428C_YF] | 0.808
28 | IFQASYFRRGD [LTK_Y676_R673Q_YF] | 1.23
29 | MDYRSYPHEYG [RBM10_Y44_R46H] | 0.854
30 | MKGEYYRYLAE [YWHAG_Y131_D129E] | 1.07
31 | CFTRKYTLPPG [HSPB1_Y142] | 1.06
32 | YCRHNYGVGES [HLA-DRB1_Y112_V115G] | 0.913
33 | HVEAVYIDIAD [PITPNA_Y140] | 1.18

Molecular target: FGFR1 (UniProt P11362)
Assay: as above

FGFR1, sequence (P11362 whole entry, looked up): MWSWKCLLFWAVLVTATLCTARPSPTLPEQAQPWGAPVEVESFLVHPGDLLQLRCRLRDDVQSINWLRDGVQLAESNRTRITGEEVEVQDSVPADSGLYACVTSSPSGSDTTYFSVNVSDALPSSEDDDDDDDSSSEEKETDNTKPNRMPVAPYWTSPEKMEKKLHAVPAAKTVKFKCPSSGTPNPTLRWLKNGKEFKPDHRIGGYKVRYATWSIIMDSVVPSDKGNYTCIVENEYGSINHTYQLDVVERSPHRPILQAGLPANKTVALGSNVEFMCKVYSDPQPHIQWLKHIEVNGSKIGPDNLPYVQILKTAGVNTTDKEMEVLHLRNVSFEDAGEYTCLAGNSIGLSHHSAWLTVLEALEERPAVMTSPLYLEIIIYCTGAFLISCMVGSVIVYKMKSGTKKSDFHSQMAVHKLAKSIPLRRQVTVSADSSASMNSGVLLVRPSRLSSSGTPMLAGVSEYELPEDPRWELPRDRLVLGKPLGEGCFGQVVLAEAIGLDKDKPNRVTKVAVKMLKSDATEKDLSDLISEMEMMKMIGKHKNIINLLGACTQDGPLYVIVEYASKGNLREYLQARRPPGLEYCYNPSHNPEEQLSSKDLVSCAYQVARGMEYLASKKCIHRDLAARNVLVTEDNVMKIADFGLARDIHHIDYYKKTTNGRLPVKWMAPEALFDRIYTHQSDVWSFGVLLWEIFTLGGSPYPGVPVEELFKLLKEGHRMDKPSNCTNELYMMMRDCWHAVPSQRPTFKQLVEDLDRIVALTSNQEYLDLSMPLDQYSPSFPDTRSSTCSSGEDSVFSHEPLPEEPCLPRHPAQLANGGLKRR

Row | Sequence | phosphorylation enrichment
34 | ALKKPYGVLFK [RPF2_Y59_YF] | 0.404
35 | FMFKVYSDPQP [FGFR1_Y280_C277Y_YF] | 0.572
36 | ETKAFYPEEIS [HSPA1A_Y115] | 0.521
37 | SLNEGYAKDFD [FBP1_Y216_R218K] | 0.566
38 | AACQHYGVHTC [NR4A2_Y275_R278H] | 0.413
39 | SVMAEYGLFAA [VSX2_Y219_G223A_YF] | 0.505
40 | CLAKMYYSAVE [CP_Y539_D544E] | 0.861
41 | LLREWYVQDPF [SIX3_Y225_L226V_YF] | 0.766
42 | TRLAQYDSNSK [BMX_Y216_S212R] | 0.527
43 | AAVPAYDKIRV [STXBP2_Y401] | 0.321
44 | SVTCTYSRALN [TP53_Y126_P128R] | 0.461
45 | VASSLYDILAR [GLB1_Y294] | 0.37
46 | VRTGIYHGGKP [PIK3CA_Y361_E365K] | 0.456
47 | DEEEEYEFMNR [ERBB3_Y1197_D1194E_YF] | 0.572
48 | VIEFSYTSADG [DHCR7_Y382_C380Y_YF] | 0.444
49 | RSACTYLAPHL [PLK3_Y615_S618P] | 0.691
50 | EEGNPSYSSAR [MCCC2_Y520_Y520S] | 0.529

Row | Sequence | phosphorylation enrichment
51 | HAVVDYMRRQK [ATM_Y1915_L1910H] | 0.799
52 | YVSSFYHAFSG [ACTN4_Y265] | 3.31
53 | KPFRVYCDMNT [FGB_Y269_YF] | 0.597
54 | RGRSTCFWPRP [GAGE12J_Y9_Y9C_YF] | 1.05
55 | IAINKYGVSLI [MYO7A_Y2136] | 0.619
56 | DLAAQYTTVGR [SGSH_Y240] | 0.462
57 | SVVVPYEPPEI [TP53_Y220_V225I] | 0.44
58 | MTFQNYRQALF [FAM20C_Y279_G280R] | 0.444
59 | RRERPYGGGGG [FUS_Y526] | 0.554
60 | CDFKKYGKGLR [ZNF445_Y433_Y428C_YF] | 0.432
61 | IFQASYFRRGD [LTK_Y676_R673Q_YF] | 0.544
62 | MDYRSYPHEYG [RBM10_Y44_R46H] | 0.602
63 | MKGEYYRYLAE [YWHAG_Y131_D129E] | 4.14
64 | CFTRKYTLPPG [HSPB1_Y142] | 0.495
65 | YCRHNYGVGES [HLA-DRB1_Y112_V115G] | 0.549
66 | HVEAVYIDIAD [PITPNA_Y140] | 5.13
